Results reported in the supplement of paper PMC9112550, “Optimization of the antimicrobial peptide Bac7 by deep mutational scanning” (BMC Biology, 2022).
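Further: peptides expressed intracellularly from a pBAD plasmid library in pooled LB shake-flask culture, induced with 0.3% L-arabinose, DNA abundance read by NGS, three biological replicates, DESeq2 with apeglm shrinkage.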

The sequences below were run on Escherichia coli TOP10 (assay: shrunken log2 fold change of peptide-encoding DNA abundance (4.5 h post-induction vs induction); higher = less antimicrobial activity (less host growth inhibition)). Settings: time post-induction: 4.5 h; library: site-saturation at positions 5, 18, 19, 20.
RRIRWRPPRLPRPRPRPEENPRP was tested, and the “shrunken log2 fold change” value was -0.0122. For RRIRYRPPRLPRPRPRPLGSPRP, the “shrunken log2 fold change” value was -0.651. In the case of RRIRGRPPRLPRPRPRPTRHPRP, the “shrunken log2 fold change” value is reported as 0.764. RRIRLRPPRLPRPRPRPQPGPRP was tested, and the “shrunken log2 fold change” value was 0.0607. For RRIRKRPPRLPRPRPRPENPPRP, the “shrunken log2 fold change” value was 0.126. For RRIRYRPPRLPRPRPRPLPWPRP, the “shrunken log2 fold change” value was -0.132. In the case of RRIRMRPPRLPRPRPRPNQIPRP, the “shrunken log2 fold change” value is reported as 0.283. With RRIRERPPRLPRPRPRPERPPRP the “shrunken log2 fold change” value was -0.0522. With RRIRHRPPRLPRPRPRPSMTPRP the “shrunken log2 fold change” value was 0.0628. RRIRSRPPRLPRPRPRPVVWPRP was tested, and the “shrunken log2 fold change” value was 0.462. With RRIRYRPPRLPRPRPRPVFRPRP the “shrunken log2 fold change” value was -0.258. RRIRFRPPRLPRPRPRPKYPPRP was tested, and the “shrunken log2 fold change” value was -0.31. In the case of RRIRRRPPRLPRPRPRPGNWPRP, the “shrunken log2 fold change” value is reported as 0.393. In the case of RRIRCRPPRLPRPRPRPLHPPRP, the “shrunken log2 fold change” value is reported as 0.199. RRIRARPPRLPRPRPRPFEIPRP was tested, and the “shrunken log2 fold change” value was 0.083. In the case of RRIRHRPPRLPRPRPRPKSSPRP, the “shrunken log2 fold change” value is reported as -0.0395. With RRIRARPPRLPRPRPRPPCRPRP the “shrunken log2 fold change” value was 0.517. RRIRRRPPRLPRPRPRPSTDPRP was tested, and the “shrunken log2 fold change” value was -0.14. With RRIRARPPRLPRPRPRPSVFPRP the “shrunken log2 fold change” value was 0.461. With RRIRGRPPRLPRPRPRPWRGPRP the “shrunken log2 fold change” value was 0.228. For RRIRCRPPRLPRPRPRPHQIPRP, the “shrunken log2 fold change” value was -0.389. RRIRHRPPRLPRPRPRPGQEPRP was tested, and the “shrunken log2 fold change” value was -0.00664. In the case of RRIRCRPPRLPRPRPRPEAQPRP, the “shrunken log2 fold change” value is reported as 0.704. For RRIRPRPPRLPRPRPRPFCYPRP, the “shrunken log2 fold change” value was -0.26. RRIRPRPPRLPRPRPRPGYKPRP was tested, and the “shrunken log2 fold change” value was -0.141. With RRIRLRPPRLPRPRPRPYPWPRP the “shrunken log2 fold change” value was -0.141. For RRIRHRPPRLPRPRPRPHAKPRP, the “shrunken log2 fold change” value was -0.00884. In the case of RRIRPRPPRLPRPRPRPHAQPRP, the “shrunken log2 fold change” value is reported as -0.119. RRIRKRPPRLPRPRPRPCLWPRP was tested, and the “shrunken log2 fold change” value was 0.0613. In the case of RRIRTRPPRLPRPRPRPDPDPRP, the “shrunken log2 fold change” value is reported as -0.0398. In the case of RRIRWRPPRLPRPRPRPMFYPRP, the “shrunken log2 fold change” value is reported as -0.395. For RRIRHRPPRLPRPRPRPWGGPRP, the “shrunken log2 fold change” value was 0.39. RRIRIRPPRLPRPRPRPQKLPRP was tested, and the “shrunken log2 fold change” value was -0.277. RRIRPRPPRLPRPRPRPPPMPRP was tested, and the “shrunken log2 fold change” value was 0.52. With RRIRERPPRLPRPRPRPCDQPRP the “shrunken log2 fold change” value was 0.0916. With RRIRRRPPRLPRPRPRPAEWPRP the “shrunken log2 fold change” value was 0.136. With RRIRVRPPRLPRPRPRPNKMPRP the “shrunken log2 fold change” value was -0.411. In the case of RRIRDRPPRLPRPRPRPNVRPRP, the “shrunken log2 fold change” value is reported as -0.275. With RRIRFRPPRLPRPRPRPQNDPRP the “shrunken log2 fold change” value was -0.296. RRIRPRPPRLPRPRPRPKPCPRP was tested, and the “shrunken log2 fold change” value was -0.044. RRIRKRPPRLPRPRPRPQCTPRP was tested, and the “shrunken log2 fold change” value was -0.0504. RRIRPRPPRLPRPRPRPGSQPRP was tested, and the “shrunken log2 fold change” value was 0.127. In the case of RRIRPRPPRLPRPRPRPSAMPRP, the “shrunken log2 fold change” value is reported as 0.0584. For RRIRVRPPRLPRPRPRPITPPRP, the “shrunken log2 fold change” value was 0.12. For RRIRSRPPRLPRPRPRPHWEPRP, the “shrunken log2 fold change” value was -0.0851. In the case of RRIRARPPRLPRPRPRPKWMPRP, the “shrunken log2 fold change” value is reported as 0.191. With RRIRMRPPRLPRPRPRPYVRPRP the “shrunken log2 fold change” value was -0.313. RRIRRRPPRLPRPRPRPVIQPRP was tested, and the “shrunken log2 fold change” value was 0.177. For RRIRWRPPRLPRPRPRPRLNPRP, the “shrunken log2 fold change” value was 0.545. RRIRQRPPRLPRPRPRPIIAPRP was tested, and the “shrunken log2 fold change” value was 0.00878. For RRIRNRPPRLPRPRPRPCYQPRP, the “shrunken log2 fold change” value was -0.32. In the case of RRIRKRPPRLPRPRPRPNFAPRP, the “shrunken log2 fold change” value is reported as 0.155. For RRIRYRPPRLPRPRPRPYPLPRP, the “shrunken log2 fold change” value was -0.146. For RRIRWRPPRLPRPRPRPPSDPRP, the “shrunken log2 fold change” value was 0.184. With RRIRARPPRLPRPRPRPWSEPRP the “shrunken log2 fold change” value was 0.0573. For RRIRRRPPRLPRPRPRPNRTPRP, the “shrunken log2 fold change” value was -0.0707. With RRIRSRPPRLPRPRPRPYDPPRP the “shrunken log2 fold change” value was -1. With RRIRDRPPRLPRPRPRPKNEPRP the “shrunken log2 fold change” value was -0.00834. RRIRKRPPRLPRPRPRPDSEPRP was tested, and the “shrunken log2 fold change” value was -0.0164. RRIRGRPPRLPRPRPRPLMRPRP was tested, and the “shrunken log2 fold change” value was 1.61. For RRIRYRPPRLPRPRPRPENLPRP, the “shrunken log2 fold change” value was 0.0949. In the case of RRIRGRPPRLPRPRPRPVFYPRP, the “shrunken log2 fold change” value is reported as -0.0818. In the case of RRIRLRPPRLPRPRPRPWAIPRP, the “shrunken log2 fold change” value is reported as -0.0706. With RRIRCRPPRLPRPRPRPQLKPRP the “shrunken log2 fold change” value was -0.194. For RRIRCRPPRLPRPRPRPWQDPRP, the “shrunken log2 fold change” value was -0.154. In the case of RRIRMRPPRLPRPRPRPLMDPRP, the “shrunken log2 fold change” value is reported as 1.24. RRIRHRPPRLPRPRPRPDAVPRP was tested, and the “shrunken log2 fold change” value was 0.0938. In the case of RRIRQRPPRLPRPRPRPSKWPRP, the “shrunken log2 fold change” value is reported as -0.351. RRIRNRPPRLPRPRPRPYRLPRP was tested, and the “shrunken log2 fold change” value was -0.00674. With RRIRMRPPRLPRPRPRPWSRPRP the “shrunken log2 fold change” value was 0.163. RRIRVRPPRLPRPRPRPWRNPRP was tested, and the “shrunken log2 fold change” value was 0.065. With RRIRWRPPRLPRPRPRPMFLPRP the “shrunken log2 fold change” value was -0.182. In the case of RRIRGRPPRLPRPRPRPIEQPRP, the “shrunken log2 fold change” value is reported as 0.109. For RRIRTRPPRLPRPRPRPDVAPRP, the “shrunken log2 fold change” value was -0.0174. RRIRQRPPRLPRPRPRPDCMPRP was tested, and the “shrunken log2 fold change” value was 0.00805.
